From patent publication US20210332138A1 (published 2021)
Where two headings read alike, the source gives them in different places.

Key:
hPDL1-Fc fusion protein [1] = target: T1, hPDL1-Fc fusion protein (human, UniProt Q9NZQ7 19-238); experiment: RBA; PDL1 coated
hPDL1-Fc fusion protein [2] = target: T1, hPDL1-Fc fusion protein; experiment: RBA; PD1 coated
hPDL1-Fc fusion protein [3] = target: T1, hPDL1-Fc fusion protein; experiment: ELISA; FIG. 11B
hPDL1-Fc fusion protein [4] = target: T1, hPDL1-Fc fusion protein; experiment: ELISA
hPDL1-Fc fusion protein [5] = target: T1, hPDL1-Fc fusion protein; experiment: receptor blocking ELISA; hPDL1-Fc coated
[6] = target: T2, hPDL1 expressed on 293T cells (human, UniProt Q9NZQ7 19-290); experiment: FACS
T2 sequence (Q9NZQ7 19-290): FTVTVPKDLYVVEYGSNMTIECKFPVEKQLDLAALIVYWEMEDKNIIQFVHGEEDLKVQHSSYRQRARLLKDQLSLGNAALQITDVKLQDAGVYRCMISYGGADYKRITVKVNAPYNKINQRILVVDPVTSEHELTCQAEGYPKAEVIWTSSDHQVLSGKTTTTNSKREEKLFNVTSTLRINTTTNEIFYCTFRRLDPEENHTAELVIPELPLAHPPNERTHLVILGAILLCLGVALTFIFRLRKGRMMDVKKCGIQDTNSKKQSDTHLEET

hPDL1-Fc fusion protein [7] = target: T1, hPDL1-Fc fusion protein; experiment: receptor blocking ELISA; hPD1-Fc coated
[8] = target: T2, hPDL1 expressed on 293T cells; experiment: FACS; remark: listed apart in the source
hPDL1-Fc fusion protein [9] = target: T1, hPDL1-Fc fusion protein; experiment: BIAcore
hPDL1-Fc fusion protein [10] = target: T1, hPDL1-Fc fusion protein; experiment: ELISA; FIG. 11C

T1 sequence (Q9NZQ7 19-238): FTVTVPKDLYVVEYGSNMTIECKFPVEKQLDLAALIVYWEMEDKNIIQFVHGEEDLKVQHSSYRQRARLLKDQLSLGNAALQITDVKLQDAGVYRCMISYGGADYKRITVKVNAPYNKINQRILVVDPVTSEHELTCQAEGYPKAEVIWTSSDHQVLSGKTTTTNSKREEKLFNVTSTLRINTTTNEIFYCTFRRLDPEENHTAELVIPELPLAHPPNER

IC50 (hPDL1-Fc fusion protein [1])	IC50 (hPDL1-Fc fusion protein [2])	EC50 (hPDL1-Fc fusion protein [3])	EC50 (hPDL1-Fc fusion protein [4])	IC50 (hPDL1-Fc fusion protein [5])	EC50 [6]	IC50 (hPDL1-Fc fusion protein [7])	EC50 [8]	Kd (hPDL1-Fc fusion protein [9])	EC50 (hPDL1-Fc fusion protein [10])	Binder
16.6 nM	92.7 nM	0.9 nM	0.9 nM	92.7 nM	3.15 nM	16.6 nM				full-length antibody 3-1E4 (antibody, V domains shown) VH: QIQLVQSGAEVKKPGSSVKVSCKASGGTFSSYAISWVRQAPGQGLEWMGGIIPIFGTANYAQKFQGRVTITADKSTSTAYMELSSLRSEDTAVYYCAGGGAVADNSYWGQGTLVTVSS VL: DIRMTQSPSSLSASVGDRVTITCRASQGIRNDLGWYQQKPGKAPKLLIYAASSLQSGVPSRFSGSGSGTDFTLTISSLQPEDFATYYCLQDYNYPRTFGQGTKVEIK
0.795 nM	1.39 nM		0.018 nM		0.132 nM		0.132 nM	2.32 nM	0.018 nM	full-length antibody 3-1B11 (antibody, V domains shown) VH: EVQLVESGGGLVQPGGSLRLSCAASGFTFSDYDMIWVRQAPGKGLEWVAVISYDGSNKYYADSVKGRFTISRDNSKNTLYLQMNSLRAEDTAVYYCAKEFFGAFDIWGQGTMVTVSS VL: SSELTQDPAVSVALGQTVTITCQGDSLNYYYANWFQLKPGQAPVLVLFGKNNRPSGIPDRFSGSYSGSTASLTITGAQAEDDADYYCNSRDSGGNPWVFGGGTKLTVL
1.53 nM	1.26 nM	0.0391 nM	0.0391 nM	1.26 nM	0.356 nM	1.53 nM		4.46 nM	0.0247 nM	full-length antibody 4-1E8 (antibody, V domains shown) VH: QIQLVQSGAEVKMPGASVTISCEASGYNFISYYIHWVRQAPGQGLEWMGFVVPSGGAAGYTQKFQGRLTVTRDTSTSTVYMDLNSLTSDDTAVYYCVREMSGGWFDFWGQGTLVTVSS VL: DIVMTQSPSSLSASVGDRVTITCRASQGIRNDLGWYQQKPGKAPKLLIYAASTLQSGVPSRFSGSGSGTDFTLTISSLQAEDVAVYYCQQYYSTPLTFGPGTKVDIK
